Reference: patent US20190153113A1, “CD39 VASCULAR ISOFORM TARGETING AGENTS” (INNATE PHARMA, priority 2015, published 2019)

Assays:
[1] = biological target: T1, CD39 mutant 2B (E110A, R113T, E114A) (human, UniProt P49961 1-510); assay: flow cytometry, HEK293T cells transfected with mutant 2B
T1 construct: Transfected in HEK293T cells
T1 chain: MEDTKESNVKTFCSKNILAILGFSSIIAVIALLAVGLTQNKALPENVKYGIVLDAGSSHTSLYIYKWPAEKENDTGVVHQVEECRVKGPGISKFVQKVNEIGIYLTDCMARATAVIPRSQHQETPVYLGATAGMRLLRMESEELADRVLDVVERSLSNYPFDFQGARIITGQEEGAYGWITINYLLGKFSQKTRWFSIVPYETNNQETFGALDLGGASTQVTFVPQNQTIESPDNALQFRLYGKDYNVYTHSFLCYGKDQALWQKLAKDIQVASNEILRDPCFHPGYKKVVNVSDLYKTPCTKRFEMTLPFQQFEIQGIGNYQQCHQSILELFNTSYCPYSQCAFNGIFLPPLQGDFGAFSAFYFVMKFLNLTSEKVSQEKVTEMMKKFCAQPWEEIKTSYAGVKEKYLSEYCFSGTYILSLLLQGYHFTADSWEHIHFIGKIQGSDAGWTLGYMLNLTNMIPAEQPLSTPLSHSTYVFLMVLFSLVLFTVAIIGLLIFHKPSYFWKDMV

[2] = biological target: T2, Recombinant human CD39-L2 (NTPDase6, ENTPD6) (human, UniProt O75354 61-484, limits assumed); assay: ELISA on coated RechuCD39-L2, OD 450 nm [top panel CHS2-I-391]
T2 construct: Coated in ELISA
T2 sequence: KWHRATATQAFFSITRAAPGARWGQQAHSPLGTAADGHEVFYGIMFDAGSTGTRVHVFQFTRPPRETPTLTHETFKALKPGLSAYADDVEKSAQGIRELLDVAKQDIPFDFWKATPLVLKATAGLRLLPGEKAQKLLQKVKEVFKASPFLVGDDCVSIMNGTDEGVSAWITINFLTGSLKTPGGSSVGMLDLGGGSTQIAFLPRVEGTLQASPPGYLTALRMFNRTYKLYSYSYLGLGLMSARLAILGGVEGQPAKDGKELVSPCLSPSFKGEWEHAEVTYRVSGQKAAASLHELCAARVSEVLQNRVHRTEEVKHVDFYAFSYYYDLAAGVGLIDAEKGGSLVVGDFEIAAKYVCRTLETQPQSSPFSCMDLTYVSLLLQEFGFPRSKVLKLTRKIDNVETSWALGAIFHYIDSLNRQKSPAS
Protocol: (§1) Wells were washed in TBS Tween 20, and further saturated 2H at RT in TBS Blocking buffer. Dose range concentration of primary antibody was incubated in TBS blocking buffer for 2h at RT. Wells were washed in TBS Tween 20. […] Optical density was measured on Enspire at OD=450.

[3] = biological target: T3, Recombinant human CD39-L4 (NTPDase5, ENTPD5) (human, UniProt O75356 25-428); assay: ELISA on coated RechuCD39-L4, OD 450 nm [top panel CHS2-I-391]
T3 construct: Coated in ELISA
T3 sequence: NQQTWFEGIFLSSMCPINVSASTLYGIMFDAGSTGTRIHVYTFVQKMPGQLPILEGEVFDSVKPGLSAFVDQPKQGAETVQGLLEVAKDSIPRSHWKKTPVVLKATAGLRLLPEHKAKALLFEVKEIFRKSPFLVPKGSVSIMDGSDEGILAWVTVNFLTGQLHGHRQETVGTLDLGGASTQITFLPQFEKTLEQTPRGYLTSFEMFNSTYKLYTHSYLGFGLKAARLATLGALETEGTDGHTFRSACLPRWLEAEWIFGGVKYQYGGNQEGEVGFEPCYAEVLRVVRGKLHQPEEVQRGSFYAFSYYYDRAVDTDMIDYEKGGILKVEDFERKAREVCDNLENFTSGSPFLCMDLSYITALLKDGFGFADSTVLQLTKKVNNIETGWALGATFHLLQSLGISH
Protocol: as §1

[4] = biological target: T4, Cynomolgus CD39 expressed on HEK cells (cynomolgus, UniProt A0A7N9DGH8 1-510); assay: flow cytometry on HEK cells expressing cynomolgus CD39, antibody 99 nM to 0.045 nM (FIG. 1 legend says ELISA)
T4 construct: whole, on cells; also called cynoCD39; cynomolgus vascular CD39
T4 sequence: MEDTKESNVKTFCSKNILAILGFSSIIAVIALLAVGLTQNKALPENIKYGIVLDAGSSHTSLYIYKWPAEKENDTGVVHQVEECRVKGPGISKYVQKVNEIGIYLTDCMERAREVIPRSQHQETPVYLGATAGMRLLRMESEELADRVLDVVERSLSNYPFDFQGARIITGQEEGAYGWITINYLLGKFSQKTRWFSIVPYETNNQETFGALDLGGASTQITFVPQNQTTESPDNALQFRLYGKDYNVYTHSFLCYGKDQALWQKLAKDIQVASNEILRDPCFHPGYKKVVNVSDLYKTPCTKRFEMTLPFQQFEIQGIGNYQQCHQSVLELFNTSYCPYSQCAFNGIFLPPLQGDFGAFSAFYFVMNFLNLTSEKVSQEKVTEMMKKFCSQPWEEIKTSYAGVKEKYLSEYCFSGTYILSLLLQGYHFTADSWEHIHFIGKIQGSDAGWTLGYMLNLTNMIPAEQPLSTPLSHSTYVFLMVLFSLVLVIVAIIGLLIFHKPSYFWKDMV
Protocol: Briefly, 1×10⁵ HEK-huCD39or cynoCD39 cells were incubated with various concentration of unlabeled anti-CD39 antibody or isotype control (IC) from 99 nM to 0.045 nM, for 30 minutes at 4° C. After washes, cells were incubated with Goat anti-mouse H+L labeled secondary antibody for 30 min at 4° C.

B1: Antibody I-391, Fc silent recombinant chimeric human IgG1 with heavy chain N297Q mutation (antibody, V domains shown)
VH: QIQLVQSGPELKKPGETVKISCKASGYTFRNYGMNWVKQAPGKGLKWMGWINTYTGEPTYADDFKGRFAFSLATSASTAYLQISNLKNEDTATYFCARKAYYGSNYYFDYWGQGTTLTVSS
VL: DIVMTQSHKFMSTSVGDRVSITCKASQDVSTAVAWYQQKPGQSPKLLIYSASYRYTGVPDRFTGSGSGTDFTFTISTVQAEDLAVYYCQQHYTTPPYTFGGGTKLEIKR
binding result [1]: binds
binding result [2]: no binding (tested: 50 ug/ml)
binding result [3]: no binding (tested: 50 ug/ml)
EC50 [4]: 10.6 nM
